Assay results taken from paper PMC4763541, “Pitchfork and Gprasp2 Target Smoothened to the Primary Cilium for Hedgehog Pathway Activation” (PLoS ONE, 2016).

Biological target: T1, full-length hGPRASP2, purified recombinant (human, UniProt Q96D09 1-838)
T1 construct: human G protein-coupled receptor associated sorting protein 2 (GPRASP2), full length, cloned into pETM-11; source: E. coli Rosetta2 (DE3), purified (IMAC, TEV cleavage, second IMAC, SEC on Superdex 200); not shown: His6, N-terminal, cleaved
T1 sequence (looked up): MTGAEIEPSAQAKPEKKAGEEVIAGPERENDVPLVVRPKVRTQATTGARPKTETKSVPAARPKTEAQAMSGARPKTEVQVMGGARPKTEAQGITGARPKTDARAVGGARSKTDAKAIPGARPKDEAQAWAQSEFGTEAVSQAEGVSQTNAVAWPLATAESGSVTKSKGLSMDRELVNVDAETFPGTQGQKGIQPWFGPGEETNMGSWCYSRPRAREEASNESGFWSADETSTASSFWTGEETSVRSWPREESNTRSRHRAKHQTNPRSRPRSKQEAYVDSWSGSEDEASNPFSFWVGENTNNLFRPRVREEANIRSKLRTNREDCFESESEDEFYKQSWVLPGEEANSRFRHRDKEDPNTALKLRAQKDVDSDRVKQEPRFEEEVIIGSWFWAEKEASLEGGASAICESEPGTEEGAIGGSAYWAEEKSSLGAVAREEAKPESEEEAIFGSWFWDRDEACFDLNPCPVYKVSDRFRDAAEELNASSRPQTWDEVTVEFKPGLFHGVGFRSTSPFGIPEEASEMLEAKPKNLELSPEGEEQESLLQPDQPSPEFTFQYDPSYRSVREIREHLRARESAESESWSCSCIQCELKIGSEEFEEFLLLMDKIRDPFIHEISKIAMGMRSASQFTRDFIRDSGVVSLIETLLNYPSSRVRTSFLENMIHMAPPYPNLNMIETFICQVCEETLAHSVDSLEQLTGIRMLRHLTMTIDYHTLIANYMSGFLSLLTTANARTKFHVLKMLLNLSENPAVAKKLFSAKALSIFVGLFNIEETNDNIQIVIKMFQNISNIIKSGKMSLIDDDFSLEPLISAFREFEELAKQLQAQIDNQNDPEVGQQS
Test: NMR titration; 1D 1H NMR (…), 800 MHz, 298 K; 100 μM peptide before and after addition of hGPRASP2 to 4 μM (1:25 hGPRASP2:peptide); 50 mM Tris.HCl pH 8, 300 mM NaCl, 0.01% 1-thioglycerol; line broadening and loss of intensity of the peptide signals
Conditions: both partners purified

Binder: KATLLIWRRTWCRL (peptide, UniProt Q99835 539-552, looked up, source: synthetic peptide (PSL GmbH)) [hSMO-WT peptide (human SMO aa 539-552)]
- binding result: binds
